B1: BCL2L13 (parent)
chain: MASSSTVPLGFHYETKYVVLSYLG
B2: TRIB1 (parent)
chain: EIGTSDQIVPEYQEDSDISSFFC

Variants of: B1
Test: protein stability index of a GFP-peptide fusion (GPS, HEK-293T) (PSI 1-6); higher = more stable
Details: c terminus: a fixed tail appended
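Also: lentivirally expressed fusions sorted by FACS into six bins by GFP to DsRed ratio, PSI derived from sequencing read proportions per bin multiplied by bin number.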

| Variant | protein stability index |
| --- | --- |
| MASSSTVPLGFHYETKPVVLSYLG | 1.95 |
| MASSSTVPLGFHYETKQVVLSYLG | 1.84 |
| MASSSTVPLGFHYETKRVVLSYLG | 1.66 |
| MASSSTVPLGFHYETKSVVLSYLG | 1.66 |
| MASSSTVPLGFHYETKTVVLSYLG | 1.62 |
| MASSSTVPLGFHYETKYAVLSYLG | 2.24 |
| MASSSTVPLGFHYETKYDVLSYLG | 1.89 |
| MASSSTVPLGFHYETKYEVLSYLG | 2.02 |
| MASSSTVPLGFHYETKYFVLSYLG | 3.21 |
| MASSSTVPLGFHYETKYGVLSYLG | 1.53 |
| MASSSTVPLGFHYETKYHVLSYLG | 1.88 |
| MASSSTVPLGFHYETKYIVLSYLG | 2.81 |
| MASSSTVPLGFHYETKYKVLSYLG | 2.31 |
| MASSSTVPLGFHYETKYLVLSYLG | 1.88 |
| MASSSTVPLGFHYETKYMVLSYLG | 2.55 |
| MASSSTVPLGFHYETKYNVLSYLG | 1.56 |
| MASSSTVPLGFHYETKYPVLSYLG | 1.91 |
| MASSSTVPLGFHYETKYQVLSYLG | 1.37 |
| MASSSTVPLGFHYETKYRVLSYLG | 1.88 |
| MASSSTVPLGFHYETKYSVLSYLG | 1.79 |
| MASSSTVPLGFHYETKYTVLSYLG | 2.88 |
| MASSSTVPLGFHYETKYWVLSYLG | 1.84 |
| MASSSTVPLGFHYETKYYVLSYLG | 2.6 |

| Variant | protein stability index |
| --- | --- |
| MASSSTVPLGFHYETKYVALSYLG | 1.99 |
| MASSSTVPLGFHYETKYVCLSYLG | 2.34 |
| MASSSTVPLGFHYETKYVDLSYLG | 1.45 |
| MASSSTVPLGFHYETKYVELSYLG | 1.7 |
| MASSSTVPLGFHYETKYVFLSYLG | 1.5 |
| MASSSTVPLGFHYETKYVGLSYLG | 2.09 |
| MASSSTVPLGFHYETKYVHLSYLG | 1.73 |
| MASSSTVPLGFHYETKYVILSYLG | 3.19 |
| MASSSTVPLGFHYETKYVKLSYLG | 1.34 |
| MASSSTVPLGFHYETKYVLLSYLG | 2.29 |
| MASSSTVPLGFHYETKYVMLSYLG | 3.27 |
| MASSSTVPLGFHYETKYVNLSYLG | 1.94 |
| MASSSTVPLGFHYETKYVPLSYLG | 2.2 |
| MASSSTVPLGFHYETKYVQLSYLG | 1.71 |
| MASSSTVPLGFHYETKYVRLSYLG | 1.41 |
| MASSSTVPLGFHYETKYVSLSYLG | 2.19 |
| MASSSTVPLGFHYETKYVTLSYLG | 3.32 |
| MASSSTVPLGFHYETKYVWLSYLG | 1.91 |
| MASSSTVPLGFHYETKYVYLSYLG | 2.63 |
| MASSSTVPLGFHYETKYVVASYLG | 2.12 |
| MASSSTVPLGFHYETKYVVCSYLG | 2.58 |
| MASSSTVPLGFHYETKYVVDSYLG | 2.18 |
| MASSSTVPLGFHYETKYVVESYLG | 1.78 |

| Variant | protein stability index |
| --- | --- |
| MASSSTVPLGFHYETKYVVFSYLG | 3.51 |
| MASSSTVPLGFHYETKYVVGSYLG | 1.74 |
| MASSSTVPLGFHYETKYVVHSYLG | 2.01 |
| MASSSTVPLGFHYETKYVVISYLG | 1.71 |
| MASSSTVPLGFHYETKYVVKSYLG | 2.52 |
| MASSSTVPLGFHYETKYVVMSYLG | 2.37 |
| MASSSTVPLGFHYETKYVVNSYLG | 1.65 |
| MASSSTVPLGFHYETKYVVPSYLG | 1.7 |
| MASSSTVPLGFHYETKYVVQSYLG | 2.19 |
| MASSSTVPLGFHYETKYVVRSYLG | 1.48 |
| MASSSTVPLGFHYETKYVVSSYLG | 1.69 |
| MASSSTVPLGFHYETKYVVTSYLG | 2.17 |
| MASSSTVPLGFHYETKYVVVSYLG | 2.82 |
| MASSSTVPLGFHYETKYVVWSYLG | 2.22 |
| MASSSTVPLGFHYETKYVVYSYLG | 2.88 |
| MASSSTVPLGFHYETKYVVLAYLG | 3.51 |
| MASSSTVPLGFHYETKYVVLCYLG | 3.12 |
| MASSSTVPLGFHYETKYVVLDYLG | 2.24 |
| MASSSTVPLGFHYETKYVVLEYLG | 1.24 |
| MASSSTVPLGFHYETKYVVLFYLG | 3.84 |
| MASSSTVPLGFHYETKYVVLGYLG | 1.62 |
| MASSSTVPLGFHYETKYVVLHYLG | 2.27 |
| MASSSTVPLGFHYETKYVVLIYLG | 2.36 |

| Variant | protein stability index |
| --- | --- |
| MASSSTVPLGFHYETKYVVLKYLG | 1.45 |
| MASSSTVPLGFHYETKYVVLLYLG | 3.41 |
| MASSSTVPLGFHYETKYVVLNYLG | 2.4 |
| MASSSTVPLGFHYETKYVVLPYLG | 2.35 |
| MASSSTVPLGFHYETKYVVLQYLG | 3.52 |
| MASSSTVPLGFHYETKYVVLRYLG | 3.78 |
| MASSSTVPLGFHYETKYVVLTYLG | 2.72 |
| MASSSTVPLGFHYETKYVVLWYLG | 3.36 |
| MASSSTVPLGFHYETKYVVLYYLG | 2.51 |
| MASSSTVPLGFHYETKYVVLSALG | 1.89 |
| MASSSTVPLGFHYETKYVVLSCLG | 2.8 |
| MASSSTVPLGFHYETKYVVLSDLG | 2.4 |
| MASSSTVPLGFHYETKYVVLSELG | 1.85 |
| MASSSTVPLGFHYETKYVVLSFLG | 2.49 |
| MASSSTVPLGFHYETKYVVLSGLG | 2.51 |
| MASSSTVPLGFHYETKYVVLSHLG | 3 |
| MASSSTVPLGFHYETKYVVLSILG | 2.02 |
| MASSSTVPLGFHYETKYVVLSKLG | 2.37 |
| MASSSTVPLGFHYETKYVVLSLLG | 3.28 |
| MASSSTVPLGFHYETKYVVLSMLG | 2.7 |
| MASSSTVPLGFHYETKYVVLSNLG | 1.63 |
| MASSSTVPLGFHYETKYVVLSPLG | 1.47 |
| MASSSTVPLGFHYETKYVVLSQLG | 3.03 |

| Variant | protein stability index |
| --- | --- |
| MASSSTVPLGFHYETKYVVLSRLG | 1.69 |
| MASSSTVPLGFHYETKYVVLSSLG | 3.81 |
| MASSSTVPLGFHYETKYVVLSTLG | 2.81 |
| MASSSTVPLGFHYETKYVVLSVLG | 1.89 |
| MASSSTVPLGFHYETKYVVLSWLG | 2.89 |
| MASSSTVPLGFHYETKYVVLSYCG | 2.09 |
| MASSSTVPLGFHYETKYVVLSYDG | 1.63 |
| MASSSTVPLGFHYETKYVVLSYEG | 1.65 |
| MASSSTVPLGFHYETKYVVLSYFG | 2.12 |
| MASSSTVPLGFHYETKYVVLSYGG | 1.71 |
| MASSSTVPLGFHYETKYVVLSYHG | 2.59 |
| MASSSTVPLGFHYETKYVVLSYIG | 2.11 |
| MASSSTVPLGFHYETKYVVLSYKG | 2.3 |
| MASSSTVPLGFHYETKYVVLSYMG | 3.69 |
| MASSSTVPLGFHYETKYVVLSYNG | 2.18 |
| MASSSTVPLGFHYETKYVVLSYPG | 1.71 |
| MASSSTVPLGFHYETKYVVLSYQG | 1.48 |
| MASSSTVPLGFHYETKYVVLSYRG | 2.21 |
| MASSSTVPLGFHYETKYVVLSYSG | 2.34 |
| MASSSTVPLGFHYETKYVVLSYTG | 1.44 |
| MASSSTVPLGFHYETKYVVLSYVG | 1.93 |
| MASSSTVPLGFHYETKYVVLSYWG | 2.76 |
| MASSSTVPLGFHYETKYVVLSYYG | 2.46 |

| Variant | protein stability index |
| --- | --- |
| MASSSTVPLGFHYETKYVVLSYLA | 2.8 |
| MASSSTVPLGFHYETKYVVLSYLC | 2.21 |
| MASSSTVPLGFHYETKYVVLSYLD | 2.38 |
| MASSSTVPLGFHYETKYVVLSYLE | 2.05 |
| MASSSTVPLGFHYETKYVVLSYLF | 3.97 |
| MASSSTVPLGFHYETKYVVLSYLH | 2.42 |
| MASSSTVPLGFHYETKYVVLSYLI | 1.75 |
| MASSSTVPLGFHYETKYVVLSYLK | 1.45 |
| MASSSTVPLGFHYETKYVVLSYLL | 2.98 |
| MASSSTVPLGFHYETKYVVLSYLM | 1.84 |
| MASSSTVPLGFHYETKYVVLSYLN | 2.1 |
| MASSSTVPLGFHYETKYVVLSYLP | 2.71 |
| MASSSTVPLGFHYETKYVVLSYLQ | 2.62 |
| MASSSTVPLGFHYETKYVVLSYLR | 2.06 |
| MASSSTVPLGFHYETKYVVLSYLS | 1.97 |
| MASSSTVPLGFHYETKYVVLSYLT | 2.13 |
| MASSSTVPLGFHYETKYVVLSYLV | 3.35 |
| MASSSTVPLGFHYETKYVVLSYLW | 3.89 |
| MASSSTVPLGFHYETKYVVLSYLY | 1.89 |

Variants of: B2
Test: as above
Details: c terminus: native

| Variant | protein stability index |
| --- | --- |
| AIGTSDQIVPEYQEDSDISSFFC | 2.7 |
| CIGTSDQIVPEYQEDSDISSFFC | 2.38 |
| DIGTSDQIVPEYQEDSDISSFFC | 2.57 |
| FIGTSDQIVPEYQEDSDISSFFC | 2.15 |
| GIGTSDQIVPEYQEDSDISSFFC | 2.58 |
| HIGTSDQIVPEYQEDSDISSFFC | 1.97 |
| IIGTSDQIVPEYQEDSDISSFFC | 1.9 |
| KIGTSDQIVPEYQEDSDISSFFC | 1.98 |
| LIGTSDQIVPEYQEDSDISSFFC | 2.21 |
| MIGTSDQIVPEYQEDSDISSFFC | 2.41 |
| NIGTSDQIVPEYQEDSDISSFFC | 2.32 |
| PIGTSDQIVPEYQEDSDISSFFC | 3.11 |
| QIGTSDQIVPEYQEDSDISSFFC | 2.57 |
| RIGTSDQIVPEYQEDSDISSFFC | 2.77 |
| SIGTSDQIVPEYQEDSDISSFFC | 2.42 |
| TIGTSDQIVPEYQEDSDISSFFC | 2.97 |
| VIGTSDQIVPEYQEDSDISSFFC | 2.74 |
| WIGTSDQIVPEYQEDSDISSFFC | 2.46 |
| YIGTSDQIVPEYQEDSDISSFFC | 2.11 |

| Variant | protein stability index |
| --- | --- |
| EAGTSDQIVPEYQEDSDISSFFC | 2.86 |
| ECGTSDQIVPEYQEDSDISSFFC | 2.57 |
| EDGTSDQIVPEYQEDSDISSFFC | 4.01 |
| EEGTSDQIVPEYQEDSDISSFFC | 3.64 |
| EFGTSDQIVPEYQEDSDISSFFC | 2.59 |
| EGGTSDQIVPEYQEDSDISSFFC | 3.58 |
| EHGTSDQIVPEYQEDSDISSFFC | 3.45 |
| EKGTSDQIVPEYQEDSDISSFFC | 2.9 |
| ELGTSDQIVPEYQEDSDISSFFC | 3.06 |
| EMGTSDQIVPEYQEDSDISSFFC | 3.15 |
| ENGTSDQIVPEYQEDSDISSFFC | 2.74 |
| EPGTSDQIVPEYQEDSDISSFFC | 4.12 |
| EQGTSDQIVPEYQEDSDISSFFC | 2.73 |
| ERGTSDQIVPEYQEDSDISSFFC | 2.59 |
| ESGTSDQIVPEYQEDSDISSFFC | 2.94 |
| ETGTSDQIVPEYQEDSDISSFFC | 2.75 |
| EVGTSDQIVPEYQEDSDISSFFC | 3.35 |
| EWGTSDQIVPEYQEDSDISSFFC | 2.06 |
| EYGTSDQIVPEYQEDSDISSFFC | 2.81 |

| Variant | protein stability index |
| --- | --- |
| EIATSDQIVPEYQEDSDISSFFC | 2.64 |
| EICTSDQIVPEYQEDSDISSFFC | 2.38 |
| EIDTSDQIVPEYQEDSDISSFFC | 2.55 |
| EIETSDQIVPEYQEDSDISSFFC | 2.97 |
| EIFTSDQIVPEYQEDSDISSFFC | 2.32 |
| EIHTSDQIVPEYQEDSDISSFFC | 2.63 |
| EIITSDQIVPEYQEDSDISSFFC | 2.42 |
| EIKTSDQIVPEYQEDSDISSFFC | 2.65 |
| EILTSDQIVPEYQEDSDISSFFC | 2.29 |
| EIMTSDQIVPEYQEDSDISSFFC | 2.83 |
| EINTSDQIVPEYQEDSDISSFFC | 2.81 |
| EIPTSDQIVPEYQEDSDISSFFC | 2.97 |
| EIQTSDQIVPEYQEDSDISSFFC | 2.7 |
| EIRTSDQIVPEYQEDSDISSFFC | 2.31 |
| EISTSDQIVPEYQEDSDISSFFC | 2.57 |
| EITTSDQIVPEYQEDSDISSFFC | 3.01 |
| EIVTSDQIVPEYQEDSDISSFFC | 2.78 |
| EIWTSDQIVPEYQEDSDISSFFC | 2.18 |

From the supplement of paper PMC10567573
